The values that follow are results of earlier work, collected in publication PMC9154193.

In general, Kd refers to the concentration at which binding is half-saturated.

Some targets named below: ULBP3 (Homo sapiens) (UniProt Q9BZM4); Grb2 SH3 (Homo sapiens) (UniProt P62993); Lck SH2 (Homo sapiens) (UniProt P06239).
Sequence of UniProt Q9BZM4 (Q9BZM4 30-217): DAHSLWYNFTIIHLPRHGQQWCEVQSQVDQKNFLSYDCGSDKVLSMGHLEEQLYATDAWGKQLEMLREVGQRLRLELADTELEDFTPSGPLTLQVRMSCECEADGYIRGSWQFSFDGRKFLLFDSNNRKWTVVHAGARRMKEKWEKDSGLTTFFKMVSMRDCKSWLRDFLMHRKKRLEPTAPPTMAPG
Sequence of UniProt P06239 (P06239 124-227): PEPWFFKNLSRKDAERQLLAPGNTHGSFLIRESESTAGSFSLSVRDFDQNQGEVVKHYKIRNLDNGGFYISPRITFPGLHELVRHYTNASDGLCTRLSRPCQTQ
Sequence of UniProt P62993 (P62993 156-215): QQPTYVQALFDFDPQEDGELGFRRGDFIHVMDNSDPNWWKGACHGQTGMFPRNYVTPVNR

As to NKG2D (from UniProt P26718), in the series with ULBP3 (Homo sapiens), the Kd is 4 µM.
As to Vav1 SH3 (from UniProt P15498), the Kd with Grb2 SH3 (Homo sapiens) was 16.8 µM.
For the substance “Vav1 phospho-tyrosine region (from UniProt P15498)”, the Kd with Lck SH2 (Homo sapiens) is 1.39 µM.
